The target of experiment [1] is T1, F protein mutant RSV-DS-Cav1-A with a DS-Cav1 structure before fusion (respiratory syncytial virus subtype A, …, UniProt P03420 26-513).
In experiment [2] the target is T2, F protein of strain A2 of RSV subtype A (respiratory syncytial virus subtype A, …, UniProt P03420 26-574). In words: cell-based or functional assay.
Experiment [3] addresses T1, F protein mutant RSV-DS-Cav1-A with a …. This is another data set of the same source.
For experiment [4], the target named is T2, F protein of strain A2 of RSV subtype A. Put plainly: cell-based or functional assay. The source holds these as a separate data set.
Experiment [5] concerns the target T3, F protein of strain 18537 of RSV subtype B (respiratory syncytial virus subtype B, …, UniProt P13843 26-574). In words: cell-based or functional assay.
Experiment [6] addresses T3, F protein of strain 18537 of RSV …. In words: cell-based or functional assay. The source holds these as a separate data set.

B1: recombinant monoclonal antibody R3B1h1 against F protein of RSV (human IgG1-K version) (antibody, V domains shown)
VH: QVQLVQSGAEVKKPGSSVKVSCKASGGLLEDYIINWVRQAPGQGLEWMGGIIPVLGTVHYGPKFQGRVTITADESTSTAYMELSSLRSEDTAVYYCATETAIVVTESYRPHFFDNWGQGTLVTVSS
VL: DIQMTQSPSSLSASVGDRVTITCQASQDIVNYLNWYQQKPGKAPKLLIYVASNLETGVPSRFSGSGSGTDFTFTISSLQPEDIATYYCQEFAGLALNFGGGTKVEIKR
In experiment [1], B1 gave a Kd of 0.621 nM, an off-rate constant (koff) of 2.37e-05 s⁻¹ and a kon of 31800 M⁻¹ s⁻¹. In experiment [2], the “IC50(nM), inhibition of RSV/A2 strain infection of Hep-2 cells (RFFIT)” value worked out at 0.00516 nM. Moreover, in experiment [3], the concentration giving a half-maximal response (EC50 (read off the curve)) was roughly 0.1 nM. In experiment [4], the “neutralisation activity against RSV/A2 relative to Clesrovimab, by IC50” value is roughly 12 fold; the “neutralisation activity against RSV/A2 relative to Nirsevimab, by IC50” value was roughly 5 fold; the “neutralisation activity against RSV/A2 relative to Palivizumab, by IC50” value is roughly 410 fold. Besides, in experiment [5], the “neutralisation activity against RSV/18537 relative to Clesrovimab, by IC50” value is roughly 12 fold; the “neutralisation activity against RSV/18537 relative to Nirsevimab, by IC50” value is roughly 18 fold; the “neutralisation activity against RSV/18537 relative to Palivizumab, by IC50” value was roughly 545 fold.

B2: anti-RSV monoclonal antibody Nirsevimab (MEDI8897) (antibody, V domains shown)
VH: QVQLVQSGAEVKKPGSSVMVSCQASGGLLEDYIINWVRQAPGQGPEWMGGIIPVLGTVHYGPKFQGRVTITADESTDTAYMELSSLRSEDTAMYYCATETALVVSETYLPHYFDNWGQGTLVTVSS
VL: DIQMTQSPSSLSAAVGDRVTITCQASQDIVNYLNWYQQKPGKAPKLLIYVASNLETGVPSRFSGSGSGTDFSLTISSLQPEDVATYYCQQYDNLPLTFGGGTKVEIK
In experiment [1], B2 showed a Kd of 0.477 nM, a koff of 1.5e-05 s⁻¹ and a kon of 31500 M⁻¹ s⁻¹. Besides, the “IC50(nM), inhibition of strain RSV/18537 infection of Hep-2 cells (RFFIT)” value in experiment [6] stood at 0.139 nM.

B3: recombinant monoclonal antibody R22B1 against F protein of RSV (human IgG1-K version) (antibody, V domains shown)
VH: QVQLVQSGAEVKKPGSSVMVSCQASGDPLQNYIINWVRQAPGQGPEWMGAIIPALGSAHYGPKFQGRVTITADESTDTAYMELSSLRSEDTAMYYCATETAVIISESYLPHFFDNWGQGTLVTVSS
VL: DIQMTQSPSSLSAAVGDRVTITCQASQDIVNYLNWYQQKPGKAPKLLIYVASNLETGVPSRFSGSGSGTDFSLTISSLQPEDVATYYCQEYDSLALAFGGGTKVEIKR
In experiment [1], B3 came in with a Kd of 0.354 nM, a koff of 1.41e-05 s⁻¹ and an on-rate (kon) of 39900 M⁻¹ s⁻¹. In addition, in experiment [6], the “IC50(nM), inhibition of strain RSV/18537 infection of Hep-2 cells (RFFIT)” value is 0.111 nM.

B4: anti-RSV monoclonal antibody Clesrovimab (RB1) (antibody, V domains shown)
VH: EVQLVESGGGLVRPGRSLRLSCTVSGFSFDDSAMSWVRQAPGKGLEWISFIKSKTYGGTKEYAASVKGRFTISRDDSKNIAYLQMNSLKTEDTAVYYCTRGAPYGGNSDYYYGLDVWGQGTTVTVSS
VL: DIQMTQSPSSLSASVGDRVTITCRTSQDVRGALAWYQQKPGKAPKLLIFDASSLETGVPSRFSGSGSGTVFTLTISSLQPEDFAAYYCQQFLDFPFTFGQGTRLEIK
For the molecule B4, in experiment [1], the dissociation constant Kd stood at 17.6 nM, the koff was 0.000351 s⁻¹ and the association rate constant (kon) was found to be 20000 M⁻¹ s⁻¹. The “IC50(nM), inhibition of strain RSV/18537 infection of Hep-2 cells (RFFIT)” value in experiment [6] amounted to 0.088 nM.

B5: anti-RSV monoclonal antibody Palivizumab (Hu1129) (antibody, V domains shown)
VH: QVTLRESGPALVKPTQTLTLTCTFSGFSLSTSGMSVGWIRQPPGKALEWLADIWWDDKKDYNPSLKSRLTISKDTSKNQVVLKVTNMDPADTATYYCARSMITNWYFDVWGAGTTVTVSS
VL: DIQMTQSPSTLSASVGDRVTITCKCQLSVGYMHWYQQKPGKAPKLWIYDTSKLASGVPSRFSGSGSGTEFTLTISSLQPDDFATYYCFQGSGYPFTFGGGTKLEIK
Regarding B5, in experiment [1], the Kd came to 2.6 nM, the koff is 8.2e-05 s⁻¹ and the kon came out at 31600 M⁻¹ s⁻¹. Further, in experiment [6], the “IC50(nM), inhibition of strain RSV/18537 infection of Hep-2 cells (RFFIT)” value came out at 4.15 nM.

In general, Kd refers to a measure of binding affinity in units of concentration. A low value points to a tighter complex. A word on the koff: it is the rate constant with which the complex falls apart. Read a high koff as a short-lived complex. A word on the kon: it is a measure of how fast the partners come together. Broadly, the EC50 (read off the curve) is the concentration needed to bring the measured effect to its halfway point. Read a high EC50 (read off the curve) as a need for much substance.

(Values after patent US20250388652A1 (BEIJING WISDOMAB BIOTECHNOLOGY, published 2025).)
